In patent US20260045319A1 (UNIVERSITY COURT OF THE UNIVERSITY OF ST ANDREWS, published 2026):

Target: the molecule itself
Assay: size exclusion chromatography on a column calibrated with protein standards; self-association

B1: Dsg407 from Cyanophage Syn10 GenBank: AGH56623.1 (enzyme)
chain: MKIESVAIVGGGSSGWMTAAALSKLCPQLEIALIEDPNIKTVGVGESTLGHFNKFLHLLDLKDEDWMPACNATYKNSIRFTNFREGKGEVFEYPFGPSLDVSFFSQTDGINTWGKLANKYPEDFPPETFARFVNSNTYLAEHNRLTRNKDNKIPNFNFDWDTAYHIDAELFGQYLKEKIALPNGVKHIQGKVTGYQKESPNNHNFKYIILDQETAIFADLYIDCTGFKSLLLGEFMGEAFSPFSKKLANDKAMATRIPYENREEEMHNVTDCHAMKNGWVWNIPLWNRIGTGYCYSSRFVSKDDAEAEFREHLGERGKDAKIFHIDIGHGKRTRAWVNNCVGIGLSYGFIEPLESTGLLTTHENIENLVYLINQRDGYVTQAERDGFNYTCDHQIDSFSDFVAMHYAYSMRTDTPYWKWCTQMCNYMPESMGPHRQKQSTWQDLSTDTIGLNTWHINHNGISFIIAGHGLRPQSYDKLSEVLLKRNNESDYYYEDIRKDWLKHYESMVEYVKTLPTHYEFLRDEIYGSAE
notes: also called hypothetical protein CPUG_00131; viral halogenase Dsg407
Does B1 bind?
Result: binds
